Data published in publication PMC8594881.

Legend:
Format in all cases: biochemical, Streptomyces melanosporofaciens
[1] = substrate: CC(C)=CCC/C(C)=C/CC/C(C)=C/CC/C(C)=C/COP(=O)(O)OP(=O)(O)O; test: steady-state kinetics, nonlinear fit of initial velocities; conditions: cyclization reaction; Mg2+-dependent
steady-state kinetics [2] = substrate: c1ccc2[nH]ccc2c1; test: steady-state kinetics; conditions: prenylation acceptor; saturating GPP as co-substrate; Mg2+-dependent
steady-state kinetics [3] = substrate: CC(C)=CCC/C(C)=C/COP(=O)(O)OP(=O)(O)O; test: steady-state kinetics; conditions: prenylation; saturating indole as co-substrate; Mg2+-dependent

B1: cyclooctat-9-en-7-ol synthase (CotB2) (Streptomyces melanosporofaciens) (protein)
chain: MTTGLSTAGAQDIGRSSVRPYLEECTRRFQEMFDRHVVTRPTKVELTDAELREVIDDCNAAVAPLGKTVSDERWISYVGVVLWSQSPRHIKDMEAFKAVCVLNCVTFVWDDMDPALHDFGLFLPQLRKICEKYYGPEDAEVAYEAARAFVTSDHMFRDSPIKAALCTTSPEQYFRFRVTDIGVDFWMKMSYPIYRHPEFTEHAKTSLAARMTTRGLTIVNDFYSYDREVSLGQITNCFRLCDVSDETAFKEFFQARLDDMIEDIECIKAFDQLTQDVFLDLIYGNFVWTTSNKRYKTAVNDVNSRIQ
Km [1]: 43 ± 6 µM | kcat [1]: (6.7 ± 0.3) × 10^−3 s^−1 | Km (steady-state kinetics [2]): 290 ± 60 µM | Km (steady-state kinetics [3]): 390 ± 20 µM
